± gives the half width of the 95% confidence interval.
Tests used:
[1] = folding stability dG unfold (combined trypsin and chymotrypsin); higher = more stable
Procedure, shortened: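 Unfolding free energy was derived, per protease or combined, by relating Bayesian-fitted K50 values from sequencing counts to a sequence-predicted unfolded-state K50 and a shared folded-state K50. The underlying digests exposed cysteine-free mini-proteins under 80 residues, in a PA-tagged cDNA display construct, to trypsin and chymotrypsin at 11 threefold-diluted concentrations and to a no-protease condition. A filter kept only designs with AlphaFold2 dimer inter-PAE above 15.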

[2] = folding stability dG unfold from trypsin proteolysis; higher = more stable
Experimental: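 Folding stability of de novo designed mini-proteins (<80 aa, no Cys; designed by TrROS, TrMRF, ProteinMPNN and the joint model) was measured by cDNA display proteolysis with trypsin and chymotrypsin. Each protease was used at 11 concentrations in a threefold dilution series plus a no-protease condition. K50 was inferred by Bayesian fitting of sequencing counts, and dG unfold was derived against a sequence-predicted unfolded-state K50 (Tsuboyama et al. method). Sequences shown include variable-length N-terminal GS-type padding (SAGGSAGG...) inside a display construct carrying a PA tag. Rows were kept only if the AF2 dimer inter-PAE was >15, to exclude likely homo-oligomers.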

Sequence	folding stability dG unfold [1] [kcal/mol]	folding stability dG unfold [2] [kcal/mol]
SAGGSASPEELAERVAKEIEEKYPVEVTEIRVEEVSEDEVVLSMTYRKPLPGGETEVENRTVTLPQSAGGSA [r15_276_JUSTAS]	-0.404 ± 0.46	0.162 ± 0.26
SAGGSAVPKSDPVIRIKVKYPSNPQVITVPRSEIVEMEVGPPENIMTIKNPKTGKEYPATLLEILASAGGSA [r15_495_JUSTAS]	< -1	-0.531 ± 0.23
SAGGSITLEIELPNGAKITVTIEYDEETGTVTIEAEITLPNGTVIRIKATINKDGTITIEKIEVFKPSAGGS [r16_213_TrROS_Hall]	> 6	4.82 ± 0.69
SAGGSLVTELIENNPEFQALLESGTTLKVTFPGGLSGEIEVKNKSPEEIEKAILARNPGPVEIEITGSAGGS [r16_655_JUSTAS]	-0.192 ± 0.2	0.384 ± 0.11
SAGGSMEIPLGETIPIFFDDVIIEIEPETHEIHVIAEDSEKALELIKNLPFPIPAGEVKELSPEEFSAGGSA [r2_418_TrMRF]	-0.364 ± 0.21	0.352 ± 0.042
SAGGSNNDNQPEPKVPYMEITINIPVNYNPNQSEEDRKRQVQEFIEELKDMYIPFPNGYPIRIDVMSAGGSA [r2_149_TrROS]	-0.554 ± 0.49	0.149 ± 0.13
SAGGSNPGDPEQVPKVKIKITYPDNGKEFTIPVEELRNGPIEEAVSEIANEARERYPGHPLRIEPVSAGGSA [r2_392_TrROS]	< -1	-0.836 ± 0.41
SAGGSPYRIKFEFPNGPKFEFPVKITEIQPPNGNLYANITAQDDGKPHELMFPAPNIRPVEIEPPPSAGGSA [r2_319_TrROS]	-0.414 ± 0.66	-0.796 ± 0.69
SAGGSSLDEKIKQAVEEGKVPTEIEFTDPSNDLKTRYLVTVKSVLPGSYEVEVEEEIFDPDNPVLVSAGGSA [r2_420_JUSTAS]	< -1	-1.07 ± 0.27
SAGGSTLDELIDAIKKAAKKGKEPVEIEFPNPNGGMIKINPDGSIETFPPNGEPQRFKIPLDDLKISAGGSA [r2_97_TrROS]	-0.781 ± 0.25	-0.568 ± 0.11
SAGGSYRIEIEDIDPKPQWRPNPNGEWEPRPTLTIEVKIERNPDEMPEKEKQKIEEQAERIAKKFFSAGGSA [r2_40_TrROS]	< -1	-0.436 ± 0.4
SAGGTTTESVSEDSTDNGEYVTTTTTTDPVGPSTVVTTTTTTTPADGTTTTTTTTYTVPPGAPASAVVSAGG [r13_3_JUSTAS]	-0.00338 ± 0.16	0.354 ± 0.052
SAGGTVKVTVEVRDEETGETVTVEVEVEPAPAPPVVVLPAEDLEKLRELGFPENAVLDEETNELVIFSAGGS [r16_194_TrROS_Hall]	-0.204 ± 0.24	0.537 ± 0.085
SAGMDPNEKREVVVELEFEVPDPSNPEGGSVPIRVTLKATGKGTEEEAEELKKKAEEEAREKVEKGELLSAG [r5_532_JUSTAS]	-0.287 ± 0.56	0.687 ± 0.15
SAGMEVTVTDPIPLDPTPDGVPDVKPELVEERAKAAGFTDEIESVDTTPKPDSVTTTVTHPTATLTAGSAGG [r19_398_JUSTAS]	< -1	-0.201 ± 0.082
SAGMKKEKPKETVTITLKNGKKIEIVKTDDSIKIFITDKNGKKRELTVKGLSLEEILKKLEELGFEVEPSAG [r5_613_TrROS_Hall]	0.353 ± 0.2	0.776 ± 0.082
SAGMKVEVVERKGPDGRLVRVVKETTITPVPGPAVAEANGAPLTPEDEKVVTVTTTVLDPEGKVLETVDSAG [r5_128_JUSTAS]	< -1	-0.903 ± 0.43
SAGMSTSGPIFVPEGPPAIYISYPKPNVKFVVPVSEGIEAVKKRAEEPGLNPVIIKVVETPPGVPVTLSAGG [r19_386_JUSTAS]	< -1	-0.988 ± 0.34
SAGMVVKVTVITEDEKPIEVYLPVKDPEKYPPEKVEEAAKEIAKKLEEEGIPVKKVSVEPIAPKPGLLSAGG [r19_334_TrMRF]	0.0993 ± 0.4	0.544 ± 0.087
SAGMYIEGSLSSPEEAPVVAVPFPGPEKLLLAPLAVGLEEIREALEEEGFEPVEIRVAETEPGVPLDLSAGG [r19_386_TrMRF]	-0.694 ± 0.24	0.211 ± 0.024
SAGPGNWFIMIFINIEIKLETVPDPDGKPWLKITISIKFFVMIVRLPPDGKARMEMFPITIKFTFTIPLSAG [r5_428_TrROS]	> 6	4.17 ± 0.29
SAGWKLKIESPNGAEIEINPESGMIDVKNPDNGQPWSVMIPPENPGEINIFNPGDGEPLQPFKIDEIEPSAG [r5_761_TrROS]	0.111 ± 0.41	0.337 ± 0.23
SAIRGLPPEEIEKAVKKLAKEGNVEIEIKPFTMRVYPPDGGQQPYQYYQIEIYNPDNGKPIEDKIKKLFSAG [r14_628_TrROS]	< -1	0.167 ± 0.25
SAITIMIPPNQTLEEIADELGFPGIKDVKHEPFEPGYYPATFEFPGDPDREIEIMFNPEPDWMMVEVEDSAG [r14_713_TrROS]	0.0271 ± 0.13	0.809 ± 0.054
